According to patent US20210380703A1 (RIGEL PHARMACEUTICALS, published 2021):

B1: 376_F12 (antibody, V domains shown)
VH: EVQLLESGGGLVQPGGSLRLSCAASGFTFDDYSMNWVRQAPGKGLEWVAGINYNGGYKSYADSVKGRFTISRDNSKNTLYLQMNSLRAEDTAVYYCARSATWHDTHLDYWGQGTLVTVSS
VL: not shown
notes: VH/VL only
B2: 375_D04 (antibody, V domains shown)
VH: EVQLLESGGGLVQPGGSLRLSCAASGFTFDDSSMHWVRQAPGKGLEWVSNINYNGGYTGYADSVKGRFTISRDNSKNTLYLQMNSLRAEDTAVYYCAKSANWHDTALDYWGQGTLVTVSS
VL: DIQMTQSPSSLSASVGDRVTITCRASQSILSYVNWYQQKPGKAPKLVIYAATSRASGVPSRFSGSGSGTDFTLTISSLQPEDFATYYCQQSYELPLTFGGGTKVEIK
notes: VH/VL only
B3: 374_F02 (antibody, V domains shown)
VH: EVQLLESGGGLVQPGGSLRLSCAASGFTFDSYSMNWVRQAPGKGLEWVANINYNSGYTSYADSVKGRFTISRDNSKNTLYLQMNSLRAEDTAVYYCARSANWHDTALDYWGQGTLVTVSS
VL: DIQMTQSPSSLSASVGDRVTITCRASQSIVSYLNWYQQKPGKAPKLLIYAASSLQSGVPSRFSGSGSGTDFTLTISSLQPEDFATYYCQQSYELPLTFGGGTKVEIK
notes: VH/VL only
B4: 376_F04 (antibody, V domains shown)
VH: EVQLLESGGGLVQPGGSLRLSCAASGFTFDSYSMNWVRQAPGKGLEWVSNINYNSGYTGYADSVKGRFTISRDNSKNTLYLQMNSLRAEDTAVYYCARSANWHDTALDYWGQGTLVTVSS
VL: not shown
notes: VH/VL only
B5: 376_H09 (antibody, V domains shown)
VH: EVQLLESGGGLVQPGGSLRLSCAASGFTFSDYSMNWVRQAPGKGLEWVANINYNGGYTGYADSVKGRFTISRDNSKNTLYLQMNSLRAEDTAVYYCARSANWHDTALDYWGQGTLVTVSS
VL: DIQMTQSPSSLSASVGDRVTITCRASQSIITYLNWYQQKPGKAPKLVIYYVSNLPSGVPSRFSGSGSGTDFTLTISSLQPEDFATYYCQQSYDSPLTFGGGTKVEIK
notes: VH/VL only
B6: 376_H10 (antibody, V domains shown)
VH: EVQLLESGGGLVQPGGSLRLSCAASGFTFDSYSMNWVRQAPGKGLEWVSGINYNSGYKSYADSVKGRFTISRDNSKNTLYLQMNSLRAEDTAVYYCARSANWHDTALDYWGQGTLVTVSS
VL: DIQMTQSPSSLSASVGDRVTITCRASQSILTYLNWYQQKPGKAPKLVIYAATSRHSGVPSRFSGSGSGTDFTLTISSLQPEDFATYYCQQSYDSPLTFGGGTKVEIK
notes: VH/VL only
B7: 376_G08 (antibody, V domains shown)
VH: EVQLLESGGGLVQPGGSLRLSCAASGFTFDSYGMNWVRQAPGKGLEWVANINYNGGYTSYADSVKGRFTISRDNSKNTLYLQMNSLRAEDTAVYYCARSANWHDTALDYWGQGTLVTVSS
VL: DIQMTQSPSSLSASVGDRVTITCRASQSILSYVNWYQQKPGKAPKLVIYAATSRASGVPSRFSGSGSGTDFTLTISSLQPEDFATYYCQQSYDTPLTFGGGTKVEIK
notes: VH/VL only
B8: 376_G09 (antibody, V domains shown)
VH: EVQLLESGGGLVQPGGSLRLSCAASGFTFDSYSMNWVRQAPGKGLEWVSGINYNSGYKGYADSVKGRFTISRDNSKNTLYLQMNSLRAEDTAVYYCARSANWHDTALDYWGQGTLVTVSS
VL: DIQMTQSPSSLSASVGDRVTITCRASQSISYYLNWYQQKPGKAPKLLIYAVTSRASGVPSRFSGSGSGTDFTLTISSLQPEDFATYYCQQSYDNPLTFGGGTKVEIK
notes: VH/VL only

What was measured:
[1] = target: mouse ACVR2A (mouse, UniProt P27038 20-135, limits assumed); test: ELISA
How it was run: (§1)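 Binding signal was read by ELISA after ACVR2A-specific monoclonal antibodies were tested against human ACVR2A and mouse ACVR2A, with human Fc as the negative control.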

[2] = target: human ACVR2A (human, UniProt P27037 20-135, limits assumed); test: ELISA
How it was run: as §1

[3] = target: T1, biotinylated goat anti-human kappa light chain; test: ELISA; positive control
T1 construct: Positive control of the ELISA
How it was run: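 ELISA measured binding of ACVR2A-specific monoclonal antibodies to human and mouse ACVR2A. Biotinylated goat anti-human kappa light chain served as positive control and human Fc as negative control.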
Further: test concentration or dose not given here.

Sequence of mouse ACVR2A (P27038 20-135 limits assumed): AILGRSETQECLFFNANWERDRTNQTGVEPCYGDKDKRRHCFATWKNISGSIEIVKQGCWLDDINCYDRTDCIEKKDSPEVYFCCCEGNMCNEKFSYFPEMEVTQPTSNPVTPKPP
Sequence of human ACVR2A (P27037 20-135 limits assumed): as the sequence (P27038 20-135 limits assumed) above, with R20K, I73V counted along it

| Binder | optical density [1] | optical density [2] | optical density [3] |
| --- | --- | --- | --- |
| B1 | 3.25 OD | 3.13 OD | 3.44 OD |
| B2 | 3.7 OD | 3.69 OD | 3.17 OD |
| B3 | 3.59 OD | 3.56 OD | 3.16 OD |
| B4 | 3.29 OD | 3.07 OD | 3.42 OD |
| B5 | 3.3 OD | 3.32 OD | 3.46 OD |
| B6 | 3.29 OD | 3.28 OD | 3.54 OD |
| B7 | 3.64 OD | 3.69 OD | 3.47 OD |
| B8 | 3.65 OD | 3.68 OD | 3.45 OD |
